Earlier results as cited in PMC2778592.

Target: EGFR (Homo sapiens) (UniProt P00533)

Kd: 74 µM
Substance: tenascin-C Ten14 EGF-L repeat (from UniProt P24821)
